Data reported in article PMC3360035 (PLoS ONE, 2012).

Molecular target: Human γD-crystallin I90F (human, UniProt P07320 1-174, I90F)
Assay: cell-based or functional assay

suppression of aggregation on dilution out of 5 M GdnHCl (from maximum A350), αB in 5-fold molar excess: 70%
B1: αB-crystallin, wild type (natural protein, UniProt P02511 1-175, looked up)
chain: MDIAIHHPWIRRPFFPFHSPSRLFDQFFGEHLLESDLFPTSTSLSPFYLRPPSFLRAPSWFDTGLSEMRLEKDRFSVNLDVKHFSPEELKVKVLGDVIEVHGKHEERQDEHGFISREFHRKYRIPADVDPLTITSSLSSDGVLTVNGPRKQVSGPERTIPITREEKPAVTAAPKK
